± gives the standard deviation.

The nature of the series: protein stability index of a GFP-peptide fusion (GPS, HEK-293T) (PSI 1-6); higher = more stable.
Setting [1] is: treatment: DMSO, c terminus: a fixed tail appended.
The mark [2] stands for this setting: treatment: MLN4924 1 uM, 8 h, c terminus: a fixed tail appended.
Where [3] appears, read: treatment: DMSO, c terminus: native.
Setting [4] is: treatment: MLN4924 1 uM, 8 h, c terminus: native.
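Further: 24-mer peptide tiles fused after GFP, lentivirally expressed, FACS-sorted into six equal bins by GFP/DsRed ratio, decoded by Illumina sequencing, PSI is the read-weighted mean bin number.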

For the sequence SNPELDVLLLGSVDGRHLLRTLSR [DNAAF3], the protein stability index reads like this: under setting [1], 2.5 ± 0.28; under setting [2], 2.56 ± 0.32.
In the same order, the values of LPKLYLPTGPRRGRDELGGGRRPG [CDKN1A] are 4.05 ± 0.63 and 4.35 ± 0.38.
Take NWFMSFGPEIKLNTSQQGRNQAV [FAM104B]: the protein stability index worked out at 2.12 ± 0.49 under setting [3] and 2.73 ± 1 under setting [4].
With RMYPFQIHSIALSTFASLIGPFGG [CDS2], the protein stability index reads like this: under setting [1], 2.79 ± 0.33; under setting [2], 2.61 ± 0.5.
For NFAVQHRYLFEEDNLLRSTQKLSH [MATN2], in that order: 2.97 ± 0.24 and 2.85 ± 0.27.
In the same order, the values of WYTKSFGHLCAAEVVKIRDSFSNQ [DLC1] are 2.56 ± 0.78 and 2.09 ± 0.49.
As for QDSKEMKQLLDSKIGFEIGIENEE [ZNF449], the protein stability index reads like this: under setting [1], 5.35 ± 0.37; under setting [2], 5.37 ± 0.47.
IERLRSLSPKIMQEAFLVQEVVEL [TBC1D10A]: the protein stability index by setting is: under setting [1], 2.08 ± 0.36; under setting [2], 2.09 ± 0.29.
Turning to QTGDLLSTFHTISPSFQLKAAALP [PLAGL1], the protein stability index was 2.6 ± 0.22 under setting [1] and 2.67 ± 0.22 under setting [2].
In the same order, the values of KPPMMPQAQPAIPRPNRLFLRQLR [C2CD2L] are 3.22 ± 0.17 and 3.43 ± 0.42.
For KVLGRLRALSDTTEELTVIKSSLK [SLC2A12], in that order: 2.58 ± 0.25 and 2.76 ± 0.28.
In the same order, the values of QESKNQVHRRGEYNVYSTFQSHEP [PPP2R2B] are 3.72 ± 0.38 and 4.2 ± 0.22.
Regarding AARSGDAAANKLFHYIPGTDILDL [PLEKHN1], the protein stability index under setting [1] is 3.51 ± 0.39 and the protein stability index under setting [2] amounted to 3.35 ± 0.14.
For VGYQSQNISCFFRLVDRDSVWGYD [MYORG], in that order: 2.34 ± 0.85 and 2.34 ± 0.17.
Regarding YYIRYRGAVYADSGNFERCIRLWK [FEM1A], the protein stability index reads like this: under setting [1], 2.59 ± 0.35; under setting [2], 2.5 ± 0.57.
In the same order, the values of SASDGSSFVVARYFPAGNVVNEGF [GLIPR2] are 2.58 ± 0.29 and 2.58 ± 0.35.
Turning to EPLPVERDPAAGAAPFRFVARPVR [ZNF511], the protein stability index is, setting by setting: under setting [1], 2.77 ± 0.68; under setting [2], 3.48 ± 0.87.
For FMEMNQKLFDDCTQQFKAEKLKEK [PPP2R5C], in that order: 4.26 ± 0.31 and 4.43 ± 0.28.
Consider TGGSADLFGGFADFGSAAASGSFP [CLINT1], for which the protein stability index runs as follows: under setting [1], 3.69 ± 0.35; under setting [2], 3.62 ± 0.24.
In the same order, the values of SEKKTISFQGCMAQLFMDHLFAGA [OR4A15] are 2.56 ± 0.73 and 2.66 ± 0.79.
In the same order, the values of PKETQPFPKSEQVYLHFLSVVTED [ZNF232] are 2.69 ± 0.24 and 2.99 ± 0.28.
For YTSGTTGIPKGVMLSHDNITWIAG [ACSBG2], in that order: 2.37 ± 0.36 and 2.21 ± 0.31.
On to INRVSTCYSEEITVCGDLHGQLDD [PPEF2], for which the protein stability index under setting [1] stood at 4.24 ± 0.33 and the protein stability index under setting [2] worked out at 3.96 ± 0.27.
For GSDYVNANYIDGYRKQNAYIATQG [PTPRD], in that order: 3.51 ± 1.2 and 3.46 ± 0.28.
Consider EYFFDRNRPSFDAILYYYQSGGRL [KCNA1], for which the protein stability index was 2.52 ± 0.43 under setting [1] and 2.18 ± 0.29 under setting [2].
In the same order, the values of KHAVVNLINYQDDAELATRAIPEL [CTNNB1] are 3.66 ± 0.23 and 3.64 ± 0.38.
For AWDNPAYSGPPSPHGTLRVCTISS [PKD2L1], in that order: 2.93 ± 0.31 and 3.05 ± 0.37.
For MAVLKLTDQPPLVQAIFSGDPEEI [ANKRD44], in that order: 3.37 ± 0.28 and 3.43 ± 0.21.
Take AGPYLLNGSYLELSSDRVANSSSE [ADAMTSL2]: the protein stability index by setting is: under setting [1], 4.09 ± 0.27; under setting [2], 4.07 ± 0.17.
For KQGYILNSDQTTCRIQDLCAMEDH [MATN2], in that order: 3.35 ± 0.27 and 3.17 ± 0.39.
On to QSGCLYRLRALGERHTMDLTVEGF [TMEM120A], for which the protein stability index reads like this: under setting [1], 2.12 ± 0.55; under setting [2], 2.27 ± 0.2.
Turning to ILHMNGSQSSTYRGTYEQDGRFEK [ZNF396], the protein stability index runs as follows: under setting [1], 2.86 ± 0.41; under setting [2], 3.36 ± 0.14.
For CVTLVWRMPDEDSKIDHYVLEYRR [FSD1], in that order: 2.29 ± 0.43 and 1.93 ± 0.3.
In the same order, the values of GIELMEVDPIGHVYIFATCLGLSY [MAGEA6] are 3.02 ± 0.66 and 2.92 ± 0.41.
Turning to SDQETLRIHERLVAGSLAGAIAQS [SLC25A25], the protein stability index is 3.87 ± 0.18 under setting [1] and 3.8 ± 0.43 under setting [2].
Turning to DEEHMEEAITSASFLEQIMAPLQP [FAM189A2], the protein stability index under setting [1] is 4.74 ± 0.18 and the protein stability index under setting [2] amounted to 4.96 ± 0.19.
SRSAILIQHRRTHTDSKYEHAIAE [ZNF396]: the protein stability index runs as follows: under setting [1], 3.63 ± 0.15; under setting [2], 3.72 ± 0.19.
Take RCLHASQWPVCAACPVRKFWSVG [BRF1]: the protein stability index was found to be 2.4 ± 0.14 under setting [3] and 2.17 ± 0.34 under setting [4].
Regarding ESENASLREKLRLREAEIARIRDE [LRRC45], the protein stability index is, setting by setting: under setting [1], 5.26 ± 0.17; under setting [2], 5.11 ± 0.11.
QNTHLTRHQRTHTGEKPYQCNICG [ZNF263] gave a protein stability index under setting [1] of 4.01 ± 0.27 and a protein stability index under setting [2] of 4.19 ± 0.32.
For DLKLRKFVFSTEERTQLRLESLED [TRIB1], in that order: 3.74 ± 0.1 and 4.2 ± 0.43.
In the same order, the values of RLRDAGFRVTLWVHPFVNYNSSRF [MYORG] are 2.61 ± 0.61 and 2.44 ± 0.15.
For EGQDLQHISNQKMPTGPPEDRLSL [DRICH1], in that order: 5.11 ± 0.37 and 5.03 ± 0.26.
SSIIHEIDSILGNKPYSKKDYRS [KCNAB2] had a protein stability index under setting [3] of 3.02 ± 0.37 and a protein stability index under setting [4] of 3.53 ± 0.28.
On to EHVFDLILELYNIDSHLLLSVLPQ [PDS5B], for which the protein stability index under setting [1] was found to be 2.92 ± 0.47 and the protein stability index under setting [2] stood at 2.85 ± 0.72.
For SNVKVETQSDEENGRACEMNGEEC [IKZF1], in that order: 5.75 ± 0.27 and 5.25 ± 0.36.
In the same order, the values of TTTTFPMSNHTRERVTVAKLTLEN [STK38L] are 3.52 ± 0.26 and 3.5 ± 0.18.
Regarding SEQCYYIFGDLCGNMANLSLHDHD [DVL3], the protein stability index under setting [1] was 2.96 ± 0.19 and the protein stability index under setting [2] was found to be 2.91 ± 0.27.
For CNPLRYSVLMGHGVCMGLVAAACA [OR10K2], in that order: 3.37 ± 0.59 and 2.83 ± 0.3.
For SKPSSDLLDLQPDFSSGGAAAAAA [SNAP91], in that order: 4.99 ± 0.37 and 5.027 ± 0.049.
In the case of ERRELAVEQGERALERRRRALQEE [ZBED3], the protein stability index reads like this: under setting [1], 5.34 ± 0.17; under setting [2], 5.39 ± 0.31.
In the same order, the values of LEEEIRRKQILLRGKLKKTEEELR [ZC2HC1C] are 4.39 ± 0.17 and 4.59 ± 0.39.
In the same order, the values of EIMLQYCFPRLDINVSKGINHLLK [PRIM1] are 2.18 ± 0.67 and 2.5 ± 0.47.
For TTYDRRSSQERKFMEERELLGQDE [RSPH3], in that order: 5.34 ± 0.2 and 5.39 ± 0.23.
As for KQPPVTQSKTASDKSPSTVRDQGP [FBF1], the protein stability index runs as follows: under setting [1], 5.29 ± 0.17; under setting [2], 5.27 ± 0.091.
For PSDKVGRADAHLGSSSVALPKEAS [TOR1AIP2], in that order: 5.23 ± 0.14 and 5.04 ± 0.091.
In the same order, the values of KTKEVQHNCQLHRISFCADDKTDK [GULP1] are 4.66 ± 0.36 and 4.71 ± 0.21.
In the same order, the values of LEADELCDDGGDGRGAVVPGAGLR [ZBTB22] are 5.18 ± 0.27 and 5.26 ± 0.17.
Turning to NWLQVSFTAKHANKVKVLDAPVPD [FSD1], the protein stability index by setting is: under setting [1], 3.02 ± 0.15; under setting [2], 2.91 ± 0.19.
In the same order, the values of NCHIGGSFSEETEKKFEHFSGLLN [LOXL2] are 3.02 ± 0.27 and 3.44 ± 0.32.
In the same order, the values of NASHKLEVRLVPVSFEDPEFKSSF [ATE1] are 2.65 ± 0.25 and 3.18 ± 0.19.
In the same order, the values of QQERNDTNFHGVCMFCNEEFLGNR [ZNF277] are 2.96 ± 0.34 and 2.99 ± 0.6.
Take SLFVLDQNDNAPEILYPALPTDGS [PCDHGA10]: the protein stability index turned out to be 3.69 ± 0.33 under setting [1] and 3.84 ± 0.32 under setting [2].
For CVDLTITNLLEGAVAFMPEDITKG [AUP1], in that order: 2.29 ± 0.2 and 2.57 ± 0.33.
In the same order, the values of RILQEKLDQPVSAPPSPRDISMEI [CCDC6] are 3.68 ± 0.33 and 3.87 ± 0.25.
Sequence KNFSNNSNLIRHQRIHAAERLCMG [ZNF263] yielded a protein stability index under setting [1] of 2.86 ± 0.73 and a protein stability index under setting [2] of 2.73 ± 0.35.
In the same order, the values of KRALAEGAQIWCGEGVDKLSLPAR [ALDH8A1] are 3.58 ± 0.3 and 3.71 ± 0.17.
Take CLLTYGMTSSSAYYYTKVMSELFL [PKD2L1]: the protein stability index stood at 3.23 ± 0.41 under setting [1] and 2.83 ± 0.73 under setting [2].
In the same order, the values of VTATDQKVEKMLISSIKEKYPSHS [IMPA1] are 3.94 ± 0.14 and 4.27 ± 0.23.
In the case of QQYQSQAKQLFRKLNEQSPTRCTL [SEC22B], the protein stability index reads like this: under setting [1], 3.46 ± 0.073; under setting [2], 3.44 ± 0.27.
With YKGRQLQGCPGAKKHEFLTSVLDA [SMOC2], the protein stability index by setting is: under setting [1], 3.39 ± 0.42; under setting [2], 3.73 ± 0.73.
On to DRGGWGISPRGAGYTFGQDISETF [PPP2CA], for which the protein stability index was found to be 3.21 ± 0.18 under setting [1] and 3.3 ± 0.34 under setting [2].

(Values after the supplement of paper PMC10567573.)
